Measurements as given in patent publication US20230312721A1 (published 2023).

T1: 4Ig human B7-H3 (human, UniProt Q5ZPR3 29-466, limits assumed)
T1 construct: Soluble analyte in SPR; also called 4Ig-B7H3; 4Ig B7H3
T1 sequence: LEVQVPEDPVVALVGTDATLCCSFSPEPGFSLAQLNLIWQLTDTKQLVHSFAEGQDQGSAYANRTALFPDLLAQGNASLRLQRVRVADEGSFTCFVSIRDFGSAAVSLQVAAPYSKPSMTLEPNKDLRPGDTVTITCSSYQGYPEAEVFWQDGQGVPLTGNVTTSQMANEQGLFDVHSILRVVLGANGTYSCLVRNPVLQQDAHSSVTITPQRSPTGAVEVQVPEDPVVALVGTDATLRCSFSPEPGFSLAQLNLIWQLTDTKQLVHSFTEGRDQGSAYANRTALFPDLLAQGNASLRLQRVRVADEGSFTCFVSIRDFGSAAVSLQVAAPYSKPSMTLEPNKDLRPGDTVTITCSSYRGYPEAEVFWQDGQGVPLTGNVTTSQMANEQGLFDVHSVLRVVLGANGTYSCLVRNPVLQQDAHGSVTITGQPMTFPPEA


Target: T1, 4Ig human B7-H3
Assay: SPR, Carterra LSA; antibody captured on anti-human Fc lawn, 4Ig human B7-H3 as analyte
Protocol: Chimeric and humanized antibodies were generated using CDR grafting methods using closely homologous human germline sequences. Six different humanized VH and four humanized VL sequences were combined to generate 24 different humanized IgG1 antibodies. The antibodies were expressed in HEK293 cells and purified using Protein A resin. Antibodies were buffer exchanged into PBS and quantified by OD280 and titer was calculated. Sample purity and aggregation status was determined by analytical Size Exclusion Chromatography (SEC-HPLC), which separates molecules based on molecular mass and hydrodynamic volume. Area % of each peak is calculated based on total area of the peaks. Peak symmetry is calculated to determine the peak fronting (<1) or tailing (>1). A column of 300A pore size was used for detection at 280 nm and PBS as the running buffer. Surface plasmon resonance studies to assess binding affinities were carried out on a Carterra LSA instrument. An anti-human Fc antibody “lawn” was prepared on a HC30M chip by amine coupling. The chip was activated with equal volume of 100 mM MES pH 5.5, 100 mM S-NHS and 400 mM EDC. The anti-human IgG Fc antibody was immobilized. The chip was deactivated with 1 M ethanolamine pH 8.5. Antibodies were diluted and printed onto the anti-human Fc lawn. An 8-point series of 4Ig human B7-H3 was prepared.
The characterization data, including expression titers (mg of purified protein per L of culture), purity (% monomer peak by analytical SEC-HPLC) and affinity measurement by SPR (ka, kd and KD) are summarized in Table 1 and FIG. 1-4.

| Binder | Kd | koff | kon |
| --- | --- | --- | --- |
| L3H1 (antibody, human IgG1, kappa, V domains shown, Humanized IgG1, HEK293; chains tied by the L/H names; also called YB8 L3 + YB8 H1) VH: QVQLVQSGAEVKKPGASVKVSCKASGYTFTNYDINWVRQATGQGLEWIGWIFPGDGSTQYNEKFQGRVTLTTNTSISTAYMELSSLRSEDTAVYYCARQTTATWFAYWGQGTLVTVSS VL: EIVMTQSPDFQSVTPKEKVTLTCRASQSISDYLHWYQQKPDQSPKLLIKYASQSISGVPSRFSGSGSGSDFTLTINSLEAEDAGVYYCQNGHSFPLTFGQGTKLEIKR | 10 nM | 0.00034 s⁻¹ | 34000 M⁻¹ s⁻¹ |
| L1H1 (antibody, human IgG1, kappa, Humanized IgG1, HEK293; chains tied by the L/H names; also called YB8 L1 + YB8 H1) heavy: not shown light: EIVLTQSPDFQSVTPKEKVTLTCRASQSISDYLHWYQQKPDQSPKLLIKYASQSISGVPSRFSGSGSGSDFTLTINSLEAEDAATYYCQNGHSFPLTFGQGTKLEIKRTVAAPSVFIFPPSDEQLKSGTASVVCLLNNFYPREAKVQWKVDNALQSGNSQESVTEQDSKDSTYSLSSTLTLSKADYEKHKVYACEVTHQGLSSPVTKSFNRGEC | 15 nM | 0.00043 s⁻¹ | 31000 M⁻¹ s⁻¹ |
| L1H5 (antibody, human IgG1, kappa, Humanized IgG1, HEK293; chains tied by the L/H names; also called YB8 L1 + YB8 H5) heavy: not shown light: EIVLTQSPDFQSVTPKEKVTLTCRASQSISDYLHWYQQKPDQSPKLLIKYASQSISGVPSRFSGSGSGSDFTLTINSLEAEDAATYYCQNGHSFPLTFGQGTKLEIKRTVAAPSVFIFPPSDEQLKSGTASVVCLLNNFYPREAKVQWKVDNALQSGNSQESVTEQDSKDSTYSLSSTLTLSKADYEKHKVYACEVTHQGLSSPVTKSFNRGEC | 11 nM | 0.00042 s⁻¹ | 39000 M⁻¹ s⁻¹ |
| L1H4 (antibody, human IgG1, kappa, Humanized IgG1, HEK293; chains tied by the L/H names; also called YB8 L1 + YB8 H4) heavy: not shown light: EIVLTQSPDFQSVTPKEKVTLTCRASQSISDYLHWYQQKPDQSPKLLIKYASQSISGVPSRFSGSGSGSDFTLTINSLEAEDAATYYCQNGHSFPLTFGQGTKLEIKRTVAAPSVFIFPPSDEQLKSGTASVVCLLNNFYPREAKVQWKVDNALQSGNSQESVTEQDSKDSTYSLSSTLTLSKADYEKHKVYACEVTHQGLSSPVTKSFNRGEC | 9.5 nM | 0.00041 s⁻¹ | 43000 M⁻¹ s⁻¹ |
| L1H3 (antibody, human IgG1, kappa, Humanized IgG1, HEK293; chains tied by the L/H names; also called YB8 L1 + YB8 H3) heavy: not shown light: EIVLTQSPDFQSVTPKEKVTLTCRASQSISDYLHWYQQKPDQSPKLLIKYASQSISGVPSRFSGSGSGSDFTLTINSLEAEDAATYYCQNGHSFPLTFGQGTKLEIKRTVAAPSVFIFPPSDEQLKSGTASVVCLLNNFYPREAKVQWKVDNALQSGNSQESVTEQDSKDSTYSLSSTLTLSKADYEKHKVYACEVTHQGLSSPVTKSFNRGEC | 8.1 nM | 0.00035 s⁻¹ | 43000 M⁻¹ s⁻¹ |
| L1H2 (antibody, human IgG1, kappa, Humanized IgG1, HEK293; chains tied by the L/H names; also called YB8 L1 + YB8 H2) heavy: not shown light: EIVLTQSPDFQSVTPKEKVTLTCRASQSISDYLHWYQQKPDQSPKLLIKYASQSISGVPSRFSGSGSGSDFTLTINSLEAEDAATYYCQNGHSFPLTFGQGTKLEIKRTVAAPSVFIFPPSDEQLKSGTASVVCLLNNFYPREAKVQWKVDNALQSGNSQESVTEQDSKDSTYSLSSTLTLSKADYEKHKVYACEVTHQGLSSPVTKSFNRGEC | 14 nM | 0.00041 s⁻¹ | 29000 M⁻¹ s⁻¹ |
| L1H6 (antibody, human IgG1, kappa, Humanized IgG1, HEK293; chains tied by the L/H names; also called YB8 L1 + YB8 H6) heavy: not shown light: EIVLTQSPDFQSVTPKEKVTLTCRASQSISDYLHWYQQKPDQSPKLLIKYASQSISGVPSRFSGSGSGSDFTLTINSLEAEDAATYYCQNGHSFPLTFGQGTKLEIKRTVAAPSVFIFPPSDEQLKSGTASVVCLLNNFYPREAKVQWKVDNALQSGNSQESVTEQDSKDSTYSLSSTLTLSKADYEKHKVYACEVTHQGLSSPVTKSFNRGEC | 25 nM | 0.00066 s⁻¹ | 26000 M⁻¹ s⁻¹ |
| L2H1 (antibody, human IgG1, kappa, Humanized IgG1, HEK293; chains tied by the L/H names; also called YB8 L2 + YB8 H1) heavy: not shown light: EIVMTQSPDFQSVTPKEKVTITCRASQSISDYLHWYQQKPDQSPKLLIKYASQSISGVPSRFSGSGSGSDFTLTINSLEAEDAATYYCQNGHSFPLTFGQGTKLEIKRTVAAPSVFIFPPSDEQLKSGTASVVCLLNNFYPREAKVQWKVDNALQSGNSQESVTEQDSKDSTYSLSSTLTLSKADYEKHKVYACEVTHQGLSSPVTKSFNRGEC | 11 nM | 0.00041 s⁻¹ | 39000 M⁻¹ s⁻¹ |
| L2H2 (antibody, human IgG1, kappa, Humanized IgG1, HEK293; chains tied by the L/H names; also called YB8 L2 + YB8 H2) heavy: not shown light: EIVMTQSPDFQSVTPKEKVTITCRASQSISDYLHWYQQKPDQSPKLLIKYASQSISGVPSRFSGSGSGSDFTLTINSLEAEDAATYYCQNGHSFPLTFGQGTKLEIKRTVAAPSVFIFPPSDEQLKSGTASVVCLLNNFYPREAKVQWKVDNALQSGNSQESVTEQDSKDSTYSLSSTLTLSKADYEKHKVYACEVTHQGLSSPVTKSFNRGEC | 11 nM | 0.00037 s⁻¹ | 33000 M⁻¹ s⁻¹ |
| L2H3 (antibody, human IgG1, kappa, Humanized IgG1, HEK293; chains tied by the L/H names; Lead candidate; also called YB8 L2 + YB8 H3) heavy: not shown light: EIVMTQSPDFQSVTPKEKVTITCRASQSISDYLHWYQQKPDQSPKLLIKYASQSISGVPSRFSGSGSGSDFTLTINSLEAEDAATYYCQNGHSFPLTFGQGTKLEIKRTVAAPSVFIFPPSDEQLKSGTASVVCLLNNFYPREAKVQWKVDNALQSGNSQESVTEQDSKDSTYSLSSTLTLSKADYEKHKVYACEVTHQGLSSPVTKSFNRGEC | 9.9 nM | 0.00034 s⁻¹ | 34000 M⁻¹ s⁻¹ |

Further lines, results first:

| Kd | koff | kon | Binder |
| --- | --- | --- | --- |
| 9.7 nM | 0.00032 s⁻¹ | 32000 M⁻¹ s⁻¹ | L3H3 (antibody, human IgG1, kappa, V domains shown, Humanized IgG1, HEK293; chains tied by the L/H names; also called YB8 L3 + YB8 H3) VH: QVQLVQSGAEVKKPGASVKVSCKASGYTFTNYDINWVRQATGQGLEWMGWIFPGDGSTQYNEKFKGRVTLTRNTSISTAYMELSSLRSEDTAVYFCARQTTATWFAYWGQGTLVTVSS VL: EIVMTQSPDFQSVTPKEKVTLTCRASQSISDYLHWYQQKPDQSPKLLIKYASQSISGVPSRFSGSGSGSDFTLTINSLEAEDAGVYYCQNGHSFPLTFGQGTKLEIKR |
| 24 nM | 0.00051 s⁻¹ | 21000 M⁻¹ s⁻¹ | L2H6 (antibody, human IgG1, kappa, Humanized IgG1, HEK293; chains tied by the L/H names; also called YB8 L2 + YB8 H6) heavy: not shown light: EIVMTQSPDFQSVTPKEKVTITCRASQSISDYLHWYQQKPDQSPKLLIKYASQSISGVPSRFSGSGSGSDFTLTINSLEAEDAATYYCQNGHSFPLTFGQGTKLEIKRTVAAPSVFIFPPSDEQLKSGTASVVCLLNNFYPREAKVQWKVDNALQSGNSQESVTEQDSKDSTYSLSSTLTLSKADYEKHKVYACEVTHQGLSSPVTKSFNRGEC |
| 9.4 nM | 0.0004 s⁻¹ | 42000 M⁻¹ s⁻¹ | L2H5 (antibody, human IgG1, kappa, chains tied by the L/H names; Selected lead; also called YB8-L2H5; YB8 L2 + YB8 H5) heavy: not shown light: EIVMTQSPDFQSVTPKEKVTITCRASQSISDYLHWYQQKPDQSPKLLIKYASQSISGVPSRFSGSGSGSDFTLTINSLEAEDAATYYCQNGHSFPLTFGQGTKLEIKRTVAAPSVFIFPPSDEQLKSGTASVVCLLNNFYPREAKVQWKVDNALQSGNSQESVTEQDSKDSTYSLSSTLTLSKADYEKHKVYACEVTHQGLSSPVTKSFNRGEC |
| 8.2 nM | 0.00036 s⁻¹ | 44000 M⁻¹ s⁻¹ | L2H4 (antibody, human IgG1, kappa, Humanized IgG1, HEK293; chains tied by the L/H names; Lead candidate; also called YB8 L2 + YB8 H4) heavy: not shown light: EIVMTQSPDFQSVTPKEKVTITCRASQSISDYLHWYQQKPDQSPKLLIKYASQSISGVPSRFSGSGSGSDFTLTINSLEAEDAATYYCQNGHSFPLTFGQGTKLEIKRTVAAPSVFIFPPSDEQLKSGTASVVCLLNNFYPREAKVQWKVDNALQSGNSQESVTEQDSKDSTYSLSSTLTLSKADYEKHKVYACEVTHQGLSSPVTKSFNRGEC |
| 11 nM | 0.00035 s⁻¹ | 32000 M⁻¹ s⁻¹ | L3H2 (antibody, human IgG1, kappa, V domains shown, Humanized IgG1, HEK293; chains tied by the L/H names; also called YB8 L3 + YB8 H2) VH: QVQLQQSGAEVKKPGASVKVSCKASGYTFTNYDINWVRQATGQGLEWIGWIFPGDGSTQYNEKFKGRATLTRNTSISTAYMELSSLRSEDTAVYYCARQTTATWFAYWGQGTLVTVSS VL: EIVMTQSPDFQSVTPKEKVTLTCRASQSISDYLHWYQQKPDQSPKLLIKYASQSISGVPSRFSGSGSGSDFTLTINSLEAEDAGVYYCQNGHSFPLTFGQGTKLEIKR |
| 8.4 nM | 0.00033 s⁻¹ | 40000 M⁻¹ s⁻¹ | L3H4 (antibody, human IgG1, kappa, V domains shown, Humanized IgG1, HEK293; chains tied by the L/H names; also called YB8 L3 + YB8 H4) VH: QVQLVQSGAEVKKPGASVKVSCKASGYTFTNYDINWVRQATGQGLEWIGWIFPGDGSTQYNEKFQGRVTMTTNTSISTAYMELSSLRSEDTAVYFCARQTTATWFAYWGQGTLVTVSS VL: EIVMTQSPDFQSVTPKEKVTLTCRASQSISDYLHWYQQKPDQSPKLLIKYASQSISGVPSRFSGSGSGSDFTLTINSLEAEDAGVYYCQNGHSFPLTFGQGTKLEIKR |
| 10 nM | 0.00079 s⁻¹ | 78000 M⁻¹ s⁻¹ | chimeric anti-B7H3 IgG (Chimeric Heavy Chain (Parental) + Chimeric Light chain (parental)) (antibody, V domains shown, Chimeric IgG1 with murine 8H9 variable domains, expressed in HEK293; also called Chimeric IgG; parental chimeric antibody) VH: QVQLQQSGAELVKPGASVKLSCKASGYTFTNYDINWVRQRPEQGLEWIGWIFPGDGSTQYNEKFKGKATLTTDTSSSTAYMQLSRLTSEDSAVYFCARQTTATWFAYWGQGTLVTVSA VL: DIVMTQSPATLSVTPGDRVSLSCRASQSISDYLHWYQQKSHESPRLLIKYASQSISGIPSRFSGSGSGSDFTLSINSVEPEDVGVYYCQNGHSFPLTFGAGTKLELKR |
